The chains are these.
B1: OR4K15 (parent)
chain: GUUAACGGUCAUAGGCCAUGGAAACUAGGAGCACCAUUUCGCUGCCAGUGAAGAAAUGAACAAAGAAAAUCUGGGCCAGGCAGGCAUCAAAAGAAAUAGUCUUGCGCUCAACCAGAAAGUCUGUAAUCAUUUUAAGGGUA

In this series the parent is B1. In words: self-cleavage, relative activity (ratio to wild type); higher = more cleavage; in vitro, sequencing; the parent is a self-cleaving ribozyme.
As to A67G U72A, the self-cleavage was found to be 0.26.
The figure for A64U G75A is 0.1; for A67U A89G it is 1.74; for A64U U130C it is 1.12.
The figure for A67G A91G is 1.07.
The value for A64U U108A was 0.02; that for G65C A111G was 0.01; that for G65C A111U was 0.07.
Consider A68G G99A, for which the self-cleavage worked out at 0.57.
The value for A66U A117G was 1.44; that for A66G A78G was 0.31.
For A64C U103C, the self-cleavage is 0.24.
The figure for A64C U103A is 0.14.
The value for A66U A89C was 0.99.
The value for A66U A89G was 1.7.
On to A64U A67G, for which the self-cleavage is 1.32.
The figure for A67U A129U is 1.14.
Regarding A67U A69G, the self-cleavage turned out to be 1.13.
For A66G U70C, the self-cleavage came to 0.75.
The figure for A67G U97A is 1.71.
The value for A64U A96C was 1.28.
The figure for A64U A135G is 1.22.
With A66G G73A, the self-cleavage stood at 0.15.
With A64G A86G, the self-cleavage was determined as 1.15.
The figure for A67G U122G is 2.16; for A64G A140G it is 1.47.
The figure for A64G G137U is 2.23; for A68G A96G it is 1.04; for A64G A78U it is 0.4.
The figure for A64G A67G is 1.27; for A64U A111G it is 0.04; for A68G A135G it is 1.23.
In the case of A66C A92G, the self-cleavage came to 1.21.
The figure for A67G A78U is 0.33; for A66G U133C it is 1.82.
The value for A68G A92U was 1.87; that for A67G A134G was 1.7.
Take A68C A118G: the self-cleavage was 1.84.
The value for A64G A111U was 0.1; that for A64G A111G was 0.05; that for A64G U133G was 1.05.
In the case of A64G U133C, the self-cleavage was 1.5.
The value for A64G U133A was 1.52; that for A66G G104C was 0.01.
On to A68G C71A, for which the self-cleavage came out at 0.6.
The figure for A67G A116C is 0.26; for A67G A116U it is 0.14.
The figure for A67G A116G is 0.71; for A66G U120C it is 1.71; for A66G A86C it is 1.45.
In the case of A66G A86G, the self-cleavage amounted to 1.16.
The figure for A66C A95G is 1.92; for A67U C85U it is 1.15; for A67G G138A it is 0.97.
The figure for A66G A82U is 0.29.
The figure for A64G A90G is 1.13; for A64G A90U it is 1.58; for A67G A86G it is 1.22.
Turning to A67U A94G, the self-cleavage worked out at 1.22.
The value for A64G U102A was 0.68; that for A64G A110G was 0.22; that for A64G A110C was 0.36.
The figure for A64U A86G is 1.85; for G65A A126U it is 0.76.
The value for G65A A126G was 1.12.
Take A66U A82U: the self-cleavage amounted to 0.24.
The figure for A66U A82G is 0.92; for A64U A69G it is 1.86; for A64G U70A it is 0.97.
The value for A64U A78G was 0.47; that for A68C U124C was 1.22.
The figure for G65A U72C is 0.21.
On to A66G U72C, for which the self-cleavage was 0.09.
The value for A66U U108C was 0.02.
The value for A67U U120C was 1.13.
The value for A67U U120A was 2.17.
As to A67G A118C, the self-cleavage came to 0.76.
The value for A67G A95U was 1.41; that for A66G G138A was 1.26; that for A67G G74U was 0.24.
The value for A64G U127A was 2.12; that for A66G A125G was 0.25; that for A68G A111G was 0.01.
For A67G G83A, the self-cleavage was 2.38.
The value for A67G U70G was 0.68; that for A67G U70A was 0.72; that for A68G A116U was 0.21.
The figure for A68G A90U is 1.58; for A68G A90G it is 1.17.
The figure for A66U U100C is 2.47; for A64G A135G it is 1.7.
Regarding A66G, the self-cleavage amounted to 1.09.
The value for A66C was 1.02; that for A66U was 1.36.
The figure for A64U A89G is 1.6.
A64G U120C: the self-cleavage amounted to 1.13.
The value for A64G U120A was 2.01; that for A68G C105G was 0.03; that for A68G C121U was 0.29.
The figure for A67G G104A is 0.08; for A66G U131A it is 1.7.
The figure for A67G G136A is 1.63; for A66U A67G it is 0.98; for A68G C85U it is 1.49.
Turning to G65A A117G, the self-cleavage is 0.36.
The figure for G65A A117U is 0.6.
The figure for A68C A78G is 0.24; for A64G U100A it is 0.51; for A64G U100C it is 1.22.
The value for A67G A114U was 0.03; that for A67G A114G was 0.49; that for A66G U127A was 2.35.
With A67G A82G, the self-cleavage came to 0.6.
The figure for A67G A82C is 0.13.
The value for A68G A82C was 0.2.
The figure for A68G A82G is 0.62; for A68G A82U it is 0.22.
As to A66C U100C, the self-cleavage came out at 1.6.
The figure for A64G U87C is 0.87; for A66C U132C it is 1.6; for A66G C81G it is 0.18.
The value for A64G A118U was 0.97; that for A64G A118G was 0.89.
The value for A64G U122A was 0.95.
As for A64G U122C, the self-cleavage was determined as 1.81.
The value for A66G U97C was 1.98.
The value for A66G U97A was 2.11; that for A66G A110U was 0.78.
The figure for A66G U87A is 1.15; for A66G U87C it is 0.77.
A66G A111G: the self-cleavage was 0.02.
The figure for A67G U120G is 1.4.
The value for A67G U120C was 0.83; that for A66U U70A was 0.62.
As for A64U U72A, the self-cleavage turned out to be 0.05.
The value for A67C A96U was 2.39; that for G65U A90G was 0.96.
As to A64G C109U, the self-cleavage turned out to be 0.36.
The value for A67C A117G was 2.74.
For G65A U124A, the self-cleavage was found to be 1.36.
On to A66G A91G, for which the self-cleavage came out at 1.04.
The value for A67G G84U was 0.35; that for A64G A69G was 1.36; that for A64G A69U was 1.58.
The figure for A67G U108C is 0.02; for A67G U108A it is 0.02; for A64C U131C it is 1.9.
The figure for A66G A116U is 0.7.
Regarding A66G A114U, the self-cleavage worked out at 0.08.
For the variant A68G C101G, the self-cleavage stood at 0.08.
The value for A68G C101A was 0.19; that for A66U A140G was 2.51.
The value for A64U A118G was 1.42; that for A67C A125G was 0.85.
The value for A67G A89C was 1.63; that for A67G A89U was 1.53.
On to A67G C77U, for which the self-cleavage amounted to 1.03.
The figure for A67U A118U is 0.53; for A64G A89C it is 0.64.
The figure for A64G A89G is 1.49; for A66U A78G it is 0.3; for A67U A95G it is 2.49.
The figure for A67G U139A is 1.87; for A67G U139C it is 1.64; for A66G A129U it is 1.47.
Regarding A67G A111U, the self-cleavage was found to be 0.12.
The figure for A64G C121G is 2.89.
